# From patent US10047131B2, “Peptides and combination of peptides for use in immunotherapy against ovarian cancer and other cancers” (immatics biotechnologies GmbH, priority 2015, dated 2018)
# Target: HLA-A*02:01 (Homo sapiens, UniProt P04439, D140Y/D185E/D98H/E176V/E277Q/G131W/G231S/I119V/I121R/I166T/I218V/L300P/L318F/N151K/N90K/P208A/P217A/Q86G/Q94H/R138H/R169H/T345S)
# Test: MHC binding assay (UV-ligand exchange, ELISA of exchange yield)
# Details: binding to HLA-A*02:01, UV-ligand exchange
# Method in brief: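 ELISA of β2m retained on streptavidin-captured, 100-fold diluted complexes (HRP anti-β2m, TMB, 450 nm) gives the yield. Complexes come from UV-triggered exchange of a photocleavable placeholder peptide for the candidate, which must bind to stop complex dissociation.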
row,Substance,"Peptide exchange (MHC class I binding score, peptide exchange yield)"
1,194 (ALPLFVITV; listed as Homo sapiens) [compound 194],“+++” (≥50 = +++)
2,197 (ALGPEGGRV; listed as Homo sapiens) [compound 197],“++” (≥20% = ++)
3,199 (ALQDVPLSSV; listed as Homo sapiens) [compound 199],“+++” (≥50 = +++)
4,200 (LLFGSVQEV; listed as Homo sapiens) [compound 200],“+++” (≥50 = +++)
5,201 (RLVDYLEGI; listed as Homo sapiens) [compound 201],“+++” (≥50 = +++)
6,202 (ALLDQQGSRWTL; listed as Homo sapiens) [compound 202],“+++” (≥50 = +++)
7,206 (VLQEGKLQKLAQL; listed as Homo sapiens) [compound 206],“+++” (≥50 = +++)
8,208 (KISPVTFSV; listed as Homo sapiens) [compound 208],“+++” (≥50 = +++)
9,211 (LLWPGAALL; listed as Homo sapiens) [compound 211],“++” (≥20% = ++)
10,214 (FLLDLDPLLL; listed as Homo sapiens) [compound 214],“+++” (≥50 = +++)
11,215 (QLINHLHAV; listed as Homo sapiens) [compound 215],“+++” (≥50 = +++)
12,217 (ALIHPVSTV; listed as Homo sapiens) [compound 217],“++” (≥20% = ++)
13,220 (LLQKFVPEI; listed as Homo sapiens) [compound 220],“++” (≥20% = ++)
14,221 (ALYEEGLLL; listed as Homo sapiens) [compound 221],“++” (≥20% = ++)
15,223 (ALLENIALYL; listed as Homo sapiens) [compound 223],“+++” (≥50 = +++)
16,226 (MLYVVPIYL; listed as Homo sapiens) [compound 226],“++” (≥20% = ++)
17,227 (ALMNTLLYL; listed as Homo sapiens) [compound 227],“++” (≥20% = ++)
18,231 (FLSPQQPPLLL; listed as Homo sapiens) [compound 231],“++” (≥20% = ++)
19,233 (VLSETLYEL; listed as Homo sapiens) [compound 233],“++” (≥20% = ++)
20,235 (YLNDLHEVLL; listed as Homo sapiens) [compound 235],“++++” (≥75% = ++++)
21,236 (GLLEAKVSL; listed as Homo sapiens) [compound 236],“+++” (≥50 = +++)
22,237 (ALLEASGTLLL; listed as Homo sapiens) [compound 237],“++++” (≥75% = ++++)
23,241 (SLVEVNPAYSV; listed as Homo sapiens) [compound 241],“+++” (≥50 = +++)
24,242 (AIAYILQGV; listed as Homo sapiens) [compound 242],“++” (≥20% = ++)
25,243 (LLLNELPSV; listed as Homo sapiens) [compound 243],“+++” (≥50 = +++)

# Other lines, results leading:
row,"Peptide exchange (MHC class I binding score, peptide exchange yield)",Substance
1,“+++” (≥50 = +++),193 (QLLDADGFLNV; listed as Homo sapiens) [compound 193]
2,“+++” (≥50 = +++),195 (GLFADLLPRL; listed as Homo sapiens) [compound 195]
3,“++++” (≥75% = ++++),196 (YLYSVEIKL; listed as Homo sapiens) [compound 196]
4,“+++” (≥50 = +++),198 (KTINKVPTV; listed as Homo sapiens) [compound 198]
5,“++” (≥20% = ++),204 (KIAENVEEV; listed as Homo sapiens) [compound 204]
6,“+++” (≥50 = +++),205 (SLYPGTETMGL; listed as Homo sapiens) [compound 205]
7,“++” (≥20% = ++),207 (GLTSTNAEV; listed as Homo sapiens) [compound 207]
8,“++” (≥20% = ++),209 (KLIESKHEV; listed as Homo sapiens) [compound 209]
9,“++” (≥20% = ++),210 (LLLNAVLTV; listed as Homo sapiens) [compound 210]
10,“++” (≥20% = ++),212 (ALWDQDNLSV; listed as Homo sapiens) [compound 212]
11,“+++” (≥50 = +++),216 (NLWEDPYYL; listed as Homo sapiens) [compound 216]
12,“++” (≥20% = ++),218 (SALEELVNV; listed as Homo sapiens) [compound 218]
13,“+++” (≥50 = +++),219 (KLSDIGITV; listed as Homo sapiens) [compound 219]
14,“++” (≥20% = ++),222 (NLIENVQRL; listed as Homo sapiens) [compound 222]
15,“+++” (≥50 = +++),224 (TLIDAQWVL; listed as Homo sapiens) [compound 224]
16,“+++” (≥50 = +++),225 (SLLKVLPAL; listed as Homo sapiens) [compound 225]
17,“++” (≥20% = ++),228 (AMQEYIAVV; listed as Homo sapiens) [compound 228]
18,“++” (≥20% = ++),229 (RLPGPLGTV; listed as Homo sapiens) [compound 229]
19,“+” (≥10% = +),230 (ILVDWLVEV; listed as Homo sapiens) [compound 230]
20,“++” (≥20% = ++),232 (ALLEAQDVELYL; listed as Homo sapiens) [compound 232]
21,“++” (≥20% = ++),234 (ALMEDTGRQML; listed as Homo sapiens) [compound 234]
22,“+++” (≥50 = +++),238 (YLISFQTHI; listed as Homo sapiens) [compound 238]
23,“+++” (≥50 = +++),239 (AAFAGKLLSV; listed as Homo sapiens) [compound 239]
24,“+++” (≥50 = +++),240 (ILLEQAFYL; listed as Homo sapiens) [compound 240]
25,“+++” (≥50 = +++),244 (SLFGGTEITI; listed as Homo sapiens) [compound 244]
